Read-outs that look alike come from different tables or passages of the source.

For assay [1], the target named is T1, human FcγRIIb (R&D Systems #1460-CD-050) (human, UniProt P31994 46-217, limits assumed).
T1 construct: Soluble analyte in the Octet assay
T1 sequence (looked up): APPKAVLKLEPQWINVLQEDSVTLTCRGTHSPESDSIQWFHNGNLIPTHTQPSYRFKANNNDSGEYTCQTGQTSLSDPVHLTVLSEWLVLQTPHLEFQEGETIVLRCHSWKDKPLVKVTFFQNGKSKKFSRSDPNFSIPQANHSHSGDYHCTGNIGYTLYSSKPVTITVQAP
The experiment in a line: Octet (BLI), antibody captured on FAB2G tips, soluble FcγR as analyte, 1:1 model. The text has this: (§1) The processed data was fitted using a 1:1 Langmuir binding model with X² as a measurement of fitting accuracy.
Background: In BLI a coated tip is dipped into the sample, and binding shifts an interference pattern.

Assay [2] deals with T2, human FcγRIIa (R&D Systems #1330-CD-050) (human, UniProt P12318 36-218, limits assumed).
T2 construct: Soluble analyte in the Octet assay
T2 sequence (looked up): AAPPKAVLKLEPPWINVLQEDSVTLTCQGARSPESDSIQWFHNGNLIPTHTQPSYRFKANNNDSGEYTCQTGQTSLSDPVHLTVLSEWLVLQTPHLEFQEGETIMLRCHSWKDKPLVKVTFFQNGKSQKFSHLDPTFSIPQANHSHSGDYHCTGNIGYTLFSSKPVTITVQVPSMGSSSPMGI
The assay is described as above.
Description: as §1

In assay [3] the target is T3, cynomolgus CD137 on transfected CHO cells (CHO-cyCD137) (cynomolgus (Macaca fascicularis); human).
T3 construct: extracellular domain;domain: transmembrane and intracellular part; also called cyno CD137
The experiment in a line: flow cytometry on CHO-cyCD137 cells; 95% confidence interval of the EC50. As to the method: (§2) Binding and EC50 was determined using flow cytometric of CHO cells transfected with human CD137, cynomolgus CD137 or empty vector. The extracellular part of human or cynomolgus CD137 was fused to the transmembrane and intracellular part of human CD40 and cloned into pcDNA3.1. The vector was subsequently stably transfected into CHO cells. […] CD137-transfected and empty vector-transfected cells were incubated with CD137 antibodies for at least 1 h at 4° C. to saturate the binding. In order to minimize antibody internalization, 0.05% sodium azide was used in the incubation buffer and all work was performed on ice. The CD137 antibodies were detected using PE-conjugated anti-hIgG antibody (109-115-098, Jackson Immunoresearch laboratories), incubated for 30 min at 4° C. Directly after staining the cells were fixed with a paraformaldehyde solution (10× concentrate BD CellFIX, BD biosciences #340181). Cells were analyzed by flow cytometry using FACSVerse (BD Biosciences). The median fluorescence intensity (MFI) for each sample was determined and the dose response data was analysed using Graph Pad Prism.
(§3) MFI data was normalized for each antibody, where 0% is defined as the lowest value and 100% is the highest value in the dose titration for each antibody.
A general note: A flow cytometer gives signals particle by particle.

The target of assay [4] is T4, human CD137 on transfected CHO cells (CHO-huCD137) (human).
T4 construct: domain: transmembrane and intracellular part
The experiment in a line: flow cytometry on CHO-huCD137 cells; 95% confidence interval of the EC50. As for the experimental part: as §2, §3

Assay [5] concerns the target T3, cynomolgus CD137 on transfected CHO …. The assay is described as follows: flow cytometry on CHO-cyCD137 cells; 95% confidence interval of the EC50. The source holds these as a separate data set.
Assay [6] has as its target cynomolgus CD137 (Acro Biosystems #41B-C52H4) (cynomolgus, UniProt A9YYE7 24-186). The experiment in a line: Octet (BLI), antibody amine-coupled to ARG2 biosensor, soluble CD137 as analyte, 1:1 model. As to the method: Materials and method CD137 affinity was determined using the Octet Red 96 platform (ForteBio). […] 7 2-fold serial dilutions of CD137 (Acro Biosystems #41B-H5227 and #41B-C52H4) from 100 nM was prepared in 1× kinetic buffer (ForteBio #18-1092). Association was measured for 180 s followed by dissociation for 180 s in 1× kinetic buffer. 10 mM Glycine pH 2.2 was used for regeneration.
Data generated was referenced by reference well subtraction (1188), the baseline was aligned with the y-axis, inter-step correlation by alignment against association was performed and the data was smoothed by a Savitzky-Golay filtering in the data analysis software (v.9.0.0.14). The processed data was fitted using a 1:1 Langmuir binding model with X² as a measurement of fitting accuracy.

The target in assay [7] is T4, human CD137 on transfected CHO cells …. The experiment in a line: flow cytometry on CHO-huCD137 cells; 95% confidence interval of the EC50. As to the method: as §2, §3
The source holds these as a separate data set.

Assay [8] concerns the target T5, 1553: Human CD137 with mouse domains 3A, 3B and 4A (aa 87-133) (human; mouse, UniProt P20334 86-133).
T5 construct: domain: domains 3A, 3B and 4A (aa 87-133); Human/mouse chimera transiently expressed on FreeStyle 293-F cells
The assay is described as follows: flow cytometry on transfected 293-F cells, human/mouse CD137 chimera. As for the experimental part: (§4) The ability of each antibody to bind to a panel of human/mouse CD137 chimeras expressed on the surface of transfected cells was analyzed by flow cytometry.
(§5) The chimeras were designed by exchanging domains or modules of the human CD137 with the corresponding mouse domain. Genes of CD137 human/mouse chimeras were synthesized (GenScript) and constructs cloned into pcDNA3.1 vector (Invitrogen) and transiently transfected into FreeStyle 293-F cells (Invitrogen). The transfected cells were incubated with CD137 antibodies and control antibodies, followed by incubation with anti-human IgG-PE (Jackson Immunoresearch) for detection and analyzed with FACS Verse (BD Biosciences). Binding to the different chimeric constructs was calculated as relative MFI compared to the binding of the isotype control, followed by normalization to the full-length human CD137 construct to minimize the effect of affinity differences between individual antibodies.

For assay [9], the target named is T6, 1551: Human CD137 with mouse domains 2A, 2B and 3A (aa 47-96) (human; mouse, UniProt P20334 46-95).
T6 construct: domain: domains 2A, 2B and 3A (aa 47-96); Human/mouse chimera transiently expressed on FreeStyle 293-F cells
The assay is described as above. As for the experimental part: as §4, §5

The target of assay [10] is T7, 1552: Human CD137 with mouse domains 2B, 3A and 3B (aa 64-118) (human; mouse, UniProt P20334 63-117).
T7 construct: Human/mouse chimera transiently expressed on FreeStyle 293-F cells
The assay is described as above. As to the method:
as §4, §5

For assay [11], the target named is T8, 1555: Human CD137 with mouse domains 1 and 4B and region of unknown function (aa 24-46 and aa 139-186) (human; mouse, UniProt P20334 24-45; P20334 139-185).
T8 construct: Human/mouse chimera transiently expressed on FreeStyle 293-F cells
The assay is described as above. As to the method:
as §4, §5

Assay [12] has as its target T9, 1554: Human CD137 with mouse domains 3B, 4A and 4B (aa 97-159) (human; mouse, UniProt P20334 96-159).
T9 construct: domain: domains 3B, 4A and 4B (aa 97-159); Human/mouse chimera transiently expressed on FreeStyle 293-F cells
The assay is described as above. As to the method:
as §4, §5

The target in assay [13] is T10, 1550: Human CD137 with mouse domains 1, 2A and 2B (aa 24-86) (human; mouse, UniProt P20334 24-85).
T10 construct: domain: domains 1, 2A and 2B (aa 24-86); Human/mouse chimera transiently expressed on FreeStyle 293-F cells; Limits of the human pieces are worked out from the printed aa range
The description is as above. As to the method:
as §4, §5

T4 sequence (P25942 other isoform, or with tags, fused parts or gaps limits assumed): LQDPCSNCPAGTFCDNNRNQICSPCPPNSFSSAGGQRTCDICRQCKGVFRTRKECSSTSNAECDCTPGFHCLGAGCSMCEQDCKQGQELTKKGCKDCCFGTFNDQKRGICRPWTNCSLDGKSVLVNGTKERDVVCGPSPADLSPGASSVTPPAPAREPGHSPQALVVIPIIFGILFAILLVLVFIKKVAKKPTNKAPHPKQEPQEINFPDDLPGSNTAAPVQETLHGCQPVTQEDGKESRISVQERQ
T3 sequence (P25942 other isoform, or with tags, fused parts or gaps): as the sequence (P25942 other isoform, or with tags, fused parts or gaps limits assumed) above, with P4L, N19S, R50K, T66I, P67S, F69Y, G75E, V149A counted along it
T7 sequence (P20334 other isoform, or with tags, fused parts or gaps limits assumed): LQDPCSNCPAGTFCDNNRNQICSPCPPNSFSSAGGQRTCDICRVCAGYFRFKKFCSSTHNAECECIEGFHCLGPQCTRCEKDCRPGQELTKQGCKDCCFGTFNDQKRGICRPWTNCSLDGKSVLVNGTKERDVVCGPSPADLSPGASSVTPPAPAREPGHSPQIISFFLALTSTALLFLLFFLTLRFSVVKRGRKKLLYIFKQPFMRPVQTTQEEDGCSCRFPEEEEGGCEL
T8 sequence (P20334 other isoform, or with tags, fused parts or gaps limits assumed): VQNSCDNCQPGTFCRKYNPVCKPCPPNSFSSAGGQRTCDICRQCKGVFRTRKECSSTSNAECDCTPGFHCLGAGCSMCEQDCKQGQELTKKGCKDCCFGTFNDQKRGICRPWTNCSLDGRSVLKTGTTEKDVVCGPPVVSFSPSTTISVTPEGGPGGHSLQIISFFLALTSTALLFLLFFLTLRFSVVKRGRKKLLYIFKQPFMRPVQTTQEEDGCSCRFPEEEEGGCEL
T5 sequence (P20334 other isoform, or with tags, fused parts or gaps limits assumed): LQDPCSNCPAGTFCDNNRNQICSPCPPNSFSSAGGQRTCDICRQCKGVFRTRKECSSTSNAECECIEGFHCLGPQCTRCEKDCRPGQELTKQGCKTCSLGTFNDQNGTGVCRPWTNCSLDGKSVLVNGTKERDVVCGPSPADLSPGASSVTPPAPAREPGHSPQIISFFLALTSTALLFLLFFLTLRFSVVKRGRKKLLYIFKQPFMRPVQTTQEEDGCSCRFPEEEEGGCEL
T9 sequence (P20334 other isoform, or with tags, fused parts or gaps limits assumed): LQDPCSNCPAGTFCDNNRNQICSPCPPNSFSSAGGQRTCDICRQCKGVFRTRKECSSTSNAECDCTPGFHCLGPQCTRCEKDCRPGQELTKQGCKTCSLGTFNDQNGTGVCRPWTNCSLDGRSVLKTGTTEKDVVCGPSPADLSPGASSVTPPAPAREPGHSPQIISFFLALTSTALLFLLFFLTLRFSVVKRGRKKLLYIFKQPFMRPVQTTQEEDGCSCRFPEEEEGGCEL
Chain of cynomolgus CD137 (Acro Biosystems #41B-C52H4) (A9YYE7 entry or part of it): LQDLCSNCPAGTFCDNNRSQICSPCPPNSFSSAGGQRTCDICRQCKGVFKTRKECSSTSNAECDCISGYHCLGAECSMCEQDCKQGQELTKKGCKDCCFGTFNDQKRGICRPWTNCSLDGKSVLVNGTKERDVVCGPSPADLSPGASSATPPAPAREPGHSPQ
T10 sequence (P20334 other isoform, or with tags, fused parts or gaps limits assumed): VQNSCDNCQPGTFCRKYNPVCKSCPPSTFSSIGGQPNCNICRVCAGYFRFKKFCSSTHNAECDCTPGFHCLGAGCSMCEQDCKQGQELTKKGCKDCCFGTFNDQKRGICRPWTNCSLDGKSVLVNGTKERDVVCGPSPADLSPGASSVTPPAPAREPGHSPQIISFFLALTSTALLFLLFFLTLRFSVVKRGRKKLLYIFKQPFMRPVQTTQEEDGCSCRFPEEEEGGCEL
T6 sequence (P20334 other isoform, or with tags, fused parts or gaps limits assumed): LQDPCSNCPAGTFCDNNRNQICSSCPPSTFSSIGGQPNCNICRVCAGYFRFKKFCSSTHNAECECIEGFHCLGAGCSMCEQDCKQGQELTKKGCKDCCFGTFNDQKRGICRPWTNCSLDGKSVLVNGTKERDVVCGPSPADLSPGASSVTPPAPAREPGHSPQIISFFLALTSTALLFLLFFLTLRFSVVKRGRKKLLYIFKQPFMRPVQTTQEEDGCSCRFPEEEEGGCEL

B1: REF2 (antibody)
chain 1: not shown
chain 2: DIVMTQSPDSLSVSLGERATINCRASKSVDSYGNSFMHWYQQKPGQPPKLLIYLASNLESGVPDRFSGSGSGTDFTLTISSLQAEDVAVYYCQQNNEDPRTFGGGTKVEIKRTVAAPSVFIFPPSDEQLKSGTASVVCLLNNFYPREAKVQWKVDNALQSGNSQESVTEQDSKDSTYSLSSTLTLSKADYEKHKVYACEVTHQGLSSPVTKSFNRGEC
In the case of B1, the Kd in assay [1] came to 2700 nM; in assay [2], 587 nM; in [6], 10 nM. In addition, the EC50 in assay [3] fell in the range of 0.41 to 0.56 nM; in assay [4] it was 0.16 to 0.27 nM; in assay [5], 0.13 to 0.24 µg/mL; in [7], 0.21 to 0.31 µg/mL. The “MFI antibody/isotype control, normalized to full-length human CD137” value in [8] was found to be 0.17; in [9] it was 0.37; in assay [10], 0.19; in [11], 0.26; in assay [12], 0.16; in assay [13], 0.22.

Broadly, the Kd is a measure of binding affinity in units of concentration. One may read the EC50 as the concentration at which the effect is half-maximal. Read a low EC50 as an effect from little substance.
